In a protein production outcome set (Wang et al. 2014):

Test: label from the status in PepcDB records

MAISQMKKLAMVFEKDYLDLVLKTLQQSQLVEVRDMKQLKHWQDAFNKGNVKLPQIVQYDLTHQKPLLDDEALQYLLQSQQELENGLASLSAFLPPIGKLTALRQKTPSLSFKQFEERHRQQAAQTALKMMSQKIERLEQLQSKIDQLTEYCQELEKWRSLTVLPQDLAQFHFLSARVGTIPSTANNHFYHQLKQHKGLFIEEVYHTEFEYGLVLFWQAQDTIHLQKYQFKPLLYKEQLLPSEQLRINKELLTNWLAEKDSLLKELRQSQKILAQLQVEIDYVLSQYQRQQTKKQLLGTRHLIALEGWIEADSVNQLKGLMTKTLGDMFYLDSYDVTPDDWEDVPIKLRNHRYIAPFELVTEMYALPKYQEKDPTPFLAPLYLTFFGMMVADLGYGLLLYAVTLAALVFFNLQKTSKRLVTFFNILAISVAIWGLIYGSFFGFDLPVALLSTKTDVITILVVSLLFGFVTLIFGLLLGAWQQVRMKAYATAYTSSLAWTFILLGLLLFILGKNVSGLAYLSVIGKWLALGNAFGILVVSLLKSKSLLGLGSGLYNLYGISSYLSDLVSFTRLMALGLSGASIGAAFNMIVGIFPPVTRFTVGIFIFILLHAINIFLSMLSGYVHGARLIFVEFFGKFYEGGGKAFNPLKLADNYVNVNEETDLEDN
protein production: failed

MAIVKMNKFTLLAFESEKEKLLKKIQSSSEVEFINLQDEEKVEGNEVFESLSKDDLDAETTLIEENVSKTRSALDFLKEFVAEVGGLKALKAGKESLTLDELEVKVENSNWEVVYSEVKKMERELATLENEKTKLLGEIEILEPWQSFDAPLGELNNFEKVVAFLGVISSQNLENMKNEIESEFKESYIEVISNTDQDSYVFVMTMKERAEEMDEVLKNFGFSAFQTKYKEKASVLVEEFKLKIQEIEAQKSDLKGVLSNYREEKRTLELAYEYYSNILLRKEASENFLKTDKVVVIQGWVPKNDNSSLEGIIQSSVGDMYYLEFEEVKEEEVAEVPVKLHNKGPAAAFDSITEMYSLPRYDEIDPTPLLTPFYLVFFGMMVADLGYGLVLFVGSLLAMKLLNLDEAQEKFAKFFMYLSIATTIAGAVFGTAFGFELKSIGLINPSKDTNLLLILSVGFGVIQIFFGLFIKAYMLIRDKQYLYALFDVGSWIMLLIGLPMIFFDGPISLVGKVLSIVGSILIILTQGRDEETKGAQIGQGLYALYGITGYVGDLVSYTRLMALGIAGGSIAAALNLIIGMFPGIAVIIVGPLFFIAAHTFNMLLSLLGAYVHTARLQYVEYFSKFYEGGGKAFTPFRTINKFITIKRNK
protein production: failed

MAKDTDIRSRMNRIEEIIDQLDADEVSLDEGSELYEEGQELLTEIRERLHEGQGEVIEIK
protein production: not failed

MAKFIMVVGTSSNSGKTVLVSGICRMLSNKGYKVAPFKSQNMSLNSRVSVEDGEIAVAQYTQAMAARAEPSVHFNPILLKPKGNFVSQVIVHGNPYEDKDYNEYRSKKDDFLVKIKESIDYLDKNYDYVVIEGAGSCCEINLLNDDIANLKVAEIAGADAILVSDIDRGGVFASIYGTVQLLPENWKKLLKGFVINKFRGNIDVLKDGFEKIEELTNIPVIGTIPYDETLVLPEEDSQALDGKRLEHHHHHH
protein production: failed

MAKGVRVGLKNIHFAKILTEDENGVTYDTPVKIGNAIEASITPNTNSETLYADDGPSEVESSLGETEVEIGIDQLSTTAQALLLGHTILSDGVLEKKETDIAPYGALLFESATTGGKSKLYALYKGRFQPQEESFATKGLEHHHHHH
protein production: not failed

MAKGYWIAQVDVRDSERYKDYVSTAKPAFERFGANFLARGGSVTELEGTARARNVVIEFPSVQHAIDCYNSPEYQAAAKIRQEVADAEMMIVEGI
protein production: not failed

MAKIITPLSANQVKNAKPGDKLYKLSDGGGLALWVYPTGRRSWKLSFMQDGRQQTISLGRYPDFSLAEAREWREEVRRKRAHGENVVNKKVRADFAFEKVARDWFVRWSKGRSEKYAGQVMRNFERWVFPAIGNLDIRQVRTADVVGCLRVMEARGIVDTLRKTKNSLKMVFAFAVGSGMMEINPVAQIGSGVFERVKTKNMTALSPSELPRLIDFLEQRNEFAVYAGRVHIHPVTRFCIYWLLLTMTRIREAALMEWSELDGEVWRIPAERKKERRGHDVPLSRAMRWVLDQARGLNVNGRFVFESVNFQGHINKESPHVAMRRSGLDTTAHGLRSLARTYLREVLKVYNDVAEKLLAHSLGTRTQTAYNRSELWEERKDAPERWGNDVLRLADNGK
protein production: failed

MAKIKFFALGGQDERGKNCYVLEIDNDVFIFNVGSLTPTTAVLGVKKIIPDFSWIQENQARVKGIFIGNAITENLGSLEFLFHTVGFFPIYTSSIGASIIKSKINENKLNIARDKLEIHELKPLETIEISNHSITPFKVSSSLPSSFGFALNTDNGYIVFIDDFIVLNDKNIAFENQLNQIIPKLSDNTLLLITGVGLVGRNSGFTTPKHKSLEQLNRIITPAKGRIFVACYDSNAYSVMTLAQIARMQNRPFIIYSQSFVHLFNTIVRQKLFNNTHLNTISIEEINNSTNSIVVLTSPPDKLYAKLFKIGMNEDERIRYRKSDTFIFMTPKVAGYEEIEAQILDDIARNEVSYYNLGREILSIQASDEDMKFLVSSLKPKYIIPTGGLYRDFINFTMVLKQAGAEQNQILILFNGEVLTIENKKLDSKKNELKLNPKCVDSAGLQEIGASIMFERDQMSESGVVIIIIYFDQKKSEFLNEITYSFLGVSLDVPEKDKLKTKMEELIKKQINDIKDFTTIKKRIGKEISKELKVSIKRAVMNLFTKMTSKAPLILSTIISI
protein production: failed

MAKKNKPTECPAGEKWAVPYADFLSLLLALFIALYAISAVNKSKVEALKTEFIKIFNYAPKPEAMQPVVVIPPDSGKEEEQMASESSKPASQNTETKATIARKGEGSVLEQIDQGSILKLPSNLLFENATSDAINQDMMLYIERIAKIIQKLPKRVHINVRGFTDDTPLVKTRFKSHYELAANRAYRVMKVLIQYGVNPNQLSFSSYGSTNPIAPNDSLENRMKNNRVEIFFSTDANDLSKIHSILDNEFNPHKQQE
protein production: failed

MAKKQLSLTRLSFPIFWDLLSKYLTVIINTAMVSHYSNFLVGAMGAGNQILDLFITIFSFLSVGCSVLIAQAIGAKDHVLARKVIHQSLFLNALLGFVCGVLILWHGEYLLYLLKIPQELLKDSEIYLHMLAICLFFDAIGIVLAAIVRVYNMAYWVMFIGFLMDIVVICGNYYVLHYTKSELFGIGLSNIFARIVAIVALFAILFYKLKIHLKIKEMIKLEKEVLKKVLNIGGFSAGENLLWIVQYTIAFAFVASLGEASLSVQTIYFQISMLIMLIGQATSIANEIIVGKLIGARYENIAYKHAWRALYFSVIASALVALLNYLCQDFTMQILGLKEELKNLMIPLFALSIFLEISRTFNIVMVNSLRASGDAKFPFFSGLVFMMGVSLPVGYVLCFHFNLGILGVWIGFCADEFLRGMVNSYRWKSKKWQGKALV
protein production: failed

MAKKSTRTTPEDSQASTTDSAATSTASEATQAATSATDDQAEQTTAVDPTQQITDLKAQLDAKDDQLLRAQAEIVNMQNRNKKEQAALLKYDGQALAKDVLPVLDNLERALATPADDEAAQQLKKGVEMVYGHLQDALKKHGVTEVAAAGEKFDPNIHQAVQTVPVDDDHPADTVVQVLQRGYLLKDRTLRPAMVVVAQ
protein production: failed

MAKKVVGEIKLQIPAGKANPSPPVGPALGQRGVNIMEFCKAFNERTKDMGSFNIPVIITVYQDKSFTFITKKPPVTDLIKKASGVEKGSDNPLKNKIAKLTHKQVEEIAQLKMEDLNTSTMEAAKKIVMGSARSMGVEVVD
protein production: failed

MAKLRVGIVFGGKSAEHEVSLQSAKNIVDAIDKTRFDVVLLGIDKAGQWHVNDAENYLQNADDPAHIALRPSAISLAQVPGKHQHQLINAQNGQPLPTVDVIFPIVHGTLGEDGSLQGMLRVANLPFVGSDVLSSAACMDKDVAKRLLRDAGLNIAPFITLTRTNRHAFSFAEVESRLGLPLFVKPANQGSSVGVSKVANEAQYQQAVALAFEFDHKVVVEQGIKGREIECAVLGNDNPQASTCGEIVLNSEFYAYDTKYIDDNGAQVVVPAQIPSEVNDKIRAIAIQAYQTLGCAGMARVDVFLTADNEVVINEINTLPGFTNISMYPKLWQASGLGYTDLISRLIELALERHTANNALKTTM
protein production: not failed
